These results are taken from the nanobody polyreactivity screen of Harvey et al. (2022).

This series in a line: yeast display, Sf9 membrane polyspecificity reagent, FACS + sequencing; frameworks hold sequencing errors. The gist of the method: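 Nanobodies came from a synthetic yeast display library in Saccharomyces cerevisiae BJ5465, induced with galactose for 36–48 hours and stained for 1 hour at 4 °C with 10% biotinylated, detergent-solubilized Sf9 membrane reagent. Cells were enriched on streptavidin microbeads and then FACS-sorted, with low and high (top ~1%) gates set on anti-HA fluorescence for expression and streptavidin fluorescence for reagent binding. Each polyreactivity label reflects the gate a clone came from. Genes were amplified by colony PCR, sequenced by MiSeq 2 × 250 and filtered by CDR length.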
For “AVQLEESRGGLVQAGGSLRLSCAASGFIFTVNAMGWSRQAPGKERELVAAITQSGGNTSYADSVKGRFTFSRDNAKNTFYLQMNSLKPEDTAVYYCAADDVDVEHPASWDDYDSWGQGTQVTVSS”, the “polyreactivity (PSR sort gate)” value was “low polyreactivity”.

Regarding “EEELVESGGGLVQAGGSLRLSCAASGRIFGPYAMGWYRQAPGKEREFVAAISGGGGNTYYADSVKGRFTISRDNAKNTVNLQMNSLKPEDTAVYYCAAQHVPRWWWYAPVKYDYWGQGTQVTVSS”, the “polyreactivity (PSR sort gate)” value is “low polyreactivity”.

As for “EEELVESGVGLVQAGGSLRLSCAASGRTFARNAMGWYRQAPGKERELVAGINFSGGNTYYADSVKGRFTISRDNAKNTVYLQMNSLKPEDTAVYYCAARRYWEGDYWGQGTQVTVSS”, the “polyreactivity (PSR sort gate)” value is “low polyreactivity”.

On to “EVQLVESGGGLVQAGGSLRISCAASGRIFNFYAMGWYRQAPGKEREFVASIRSNVGSTYYADSVKGRFTISRDNAKNTVYLQMNSLKPEDTAVYYCNARYYWYRGYDYWGQGTQVTVSS”, for which the “polyreactivity (PSR sort gate)” value is recorded as “high polyreactivity”.

In the case of “EVQLVESGGGLVQAGGSLRLSCAASGRIFVHYAMGWYRQAPGKERELVAAITSGSSTNYADSVKGRFTISRDNAKNTVYLQMNSLKPEDTAVYYCAADYSVHRVRDRWFDYWGQGTQVTVSS”, the “polyreactivity (PSR sort gate)” value is reported as “low polyreactivity”.

“EVQLVESGGGLVQAGGSLRLSCAASGSTFNWNDMGWYRQAPGKEREFVASISTTGSTNYADSVKGRFTISRDNAKNTVYLQMNSLKPEDTAVYYCNAEYGWYYWYGYWFYEGDYWGQGTQVTVSS”: the “polyreactivity (PSR sort gate)” value is on record as “high polyreactivity”.

On to “EVQLVESGGGLVQAGGSLRLSFAASGFTFRYYAMGWYRQAPGKERELVASITGGGRTYYADSVKGRFTISRDNAKNTVYLQMNSLKPEDTAVYYCATLLAYRLGSGYDSWGQGTQVTVSS”, for which the “polyreactivity (PSR sort gate)” value is listed as “high polyreactivity”.

With “EVQLVESGGGLVQPGGSLRLSCAASGYIYSRYRMGWYRQAPGKGREFVAAISGGSSTNYADSVKGRFTISRDNSKNTVYLQMNSLRAEDTAVYYCAAYKIDIDPRVYWGHGTQVTVSS”, the “polyreactivity (PSR sort gate)” value was “low polyreactivity”.

With “EVQLVESGGGLVQPGGSLRLSCAASGYIYSRYRMGWYRQAPGKGREFVAAISGGSSTNYADSVKGRFTISRDNSTNTVYLQMNSLRAEDTAVYYCAAYKIDSDPRVYWGQGTQVTVSS”, the “polyreactivity (PSR sort gate)” value is “low polyreactivity”.

As for “EVQLVESGGGLVQPGGSLRLSCASSGYIYRRYRMGRYRQAPGKGREFVAAISGGSSTNYADSVKGRFTISRDNSKNTLYLQMKSLRAEDTAVYYCEGYKIDSDPRVYWGQGTQVTVSS”, the “polyreactivity (PSR sort gate)” value is recorded as “low polyreactivity”.

As to “EVQLVESRGGLVQAGGSLRLSCAASGRIFRVYTMGWYRQAPGKERELVAAISRGGTTTYADSVKGRFTISCDNAKNTVYLQMNSLKPEDTAVYYCNARGWFRGEFDYWGQGTQVTVSS”, the “polyreactivity (PSR sort gate)” value was “high polyreactivity”.

For “EVQLVESVGGLVHAGGSLGLSFAASGSIFDRNAMGWYRQAPGKERELVAAISVSGGSTYYADSVKGRFTISRDNAKNTVYLQMNSLKPEDTAVYYCDKAGRYANLPYGYWGHGTQVTVSS”, the “polyreactivity (PSR sort gate)” value is on record as “high polyreactivity”.

With “HAQLQESGGGLVQAGGSLRRSCAASGSIFRFSGMGWYRRAPGKERELVASIGFGSITYYADRVKGRFTMSRDNANNTVYLQKNSLKPEDTAVDYCAVQVQDESWLDYWGQGTQVTVSC”, the “polyreactivity (PSR sort gate)” value is recorded as “low polyreactivity”.

With “HCQLVESGGVLVQEGGSLRISCAASGYTFTPYAMGWYRQAPGKEREFVAGITWRTGRTYYADSVKGRFTISRDIAKNTVYLQMISLKPEDTAVYYCNKYHQRRYYWSYDYWGQGTQVTVSS”, the “polyreactivity (PSR sort gate)” value is on record as “low polyreactivity”.

Consider “HDQLVETGGGLVQAGGSLRLSCAASGRTYSKYAMGRYRQPPGKERELVAAITSGGGTYYADSVKGRFTISRDNAKNTVYVQMNSLSPEDSAVYYCAVSVTTVSTHDYWGQGTQVTVSS”, for which the “polyreactivity (PSR sort gate)” value was “low polyreactivity”.

“HEQQQDSGAGLVQAGGSLRLSCAASGNIFDSPRMGWYRQATGKEREFVATIGSGTITNYADSVKGRFTISRDNAKNTVYLQMNSLKPEDTAVYYCAAEFYLRRFKVTKRYWFDYWGQGTQVTVSS”: the “polyreactivity (PSR sort gate)” value was “low polyreactivity”.

Take “HGQLVESGGGLVHAGGSLRLSCAASGSTFAIYALGWYREAPGKERELVAGITGRGTSTYYADSVKGRFTISRDNAKNTVYLQMNSLKPEDTAVYYCNKVRYAFRYDYWGQGTQVTVSS”: the “polyreactivity (PSR sort gate)” value is listed as “high polyreactivity”.

Regarding “HGQLVESGGGLVQAGGSLRLSCAASGITFTPKDMGWYREAPGKERELVAAISSSDGTTYYADSVTGRFTSSRDNAKNTVYLQMNSLKPEDTAVYYCAAEYYYSPAYDYYSGFKTLYYDWGQGTQVTGSS”, the “polyreactivity (PSR sort gate)” value is “high polyreactivity”.

In the case of “HLQLVESGGGLVQAGGSLRLSCAPSGSTFKRNTKGWYRQAPGKEREMVASINRGGSTYYADSVKGRFTISSDNAKNTVYLQMNSLKPEDTAVYYCAKRVLNCYTGTQAPNKFGYWGQGTQVTVSS”, the “polyreactivity (PSR sort gate)” value is “low polyreactivity”.

For the sequence “HVLLVESAGGLVQAGGSLRLSCAASGLIFHRYAMGWYRQAPGKERELVAAISSSGGITYYADSVKGRFTISRDNAKNTVYLQMNSLKPEDTAFYYCAADTGKGTPFSAGLGRAGDYWGQVTQVTVSS”, the “polyreactivity (PSR sort gate)” value was “low polyreactivity”.

Turning to “HVQLGESGGGLVQAGGSLRLSCAASGFIFQRYAMGWDRQAPGKERELVAAITTSGGRTYYADSVKGRFTMSRDNAKKTVYLQMNSLKPEDTAVYYCAAEGSHNSEYWGQGTQVTVSS”, the “polyreactivity (PSR sort gate)” value is “high polyreactivity”.

Turning to “HVQLQESDGGLVQAGGSLRLSCAASGSISPQYYMCWYRQAPGKEREFVAISKGTTTYYADSVKGRLTISRVNAKNTVYLQMNSLKPEDTAVYCCAAGRWLQKVHAYWDQGTQVTVSS”, the “polyreactivity (PSR sort gate)” value is recorded as “low polyreactivity”.

In the case of “HVQLQESGGCLVQAGGSLRLSCAARGSNSRLDSMGWNRQASGKVRELVAAIDNGSTTYYADSVKGRLTISRDNAKYSVYLQMNSLKAEDTAVYFCAAVRGGGGTHAYWGQGTQVTVSG”, the “polyreactivity (PSR sort gate)” value is listed as “low polyreactivity”.

As to “HVQLQESGGGLVQAGGSLRLSCAASGNISNSRNMGWYRQAPGKERELVAAIDRGAITYYADSVKGRFTISRDNAKNTVYLQIYSLKPEDTAVYYCAAEYHDRWDHRYWGQGTQVTVSS”, the “polyreactivity (PSR sort gate)” value was “high polyreactivity”.

With “HVQLQESGGGLVQAGGSLRLSCAASGNISYSRNMGWYRQAPGKERELVAAIDRGAITYYADSVKGRFTISRDNAKNTVYLQIYSLKPEDTAVYYCAAEDHDRWDHLYWGQGTQVTVSS”, the “polyreactivity (PSR sort gate)” value is on record as “high polyreactivity”.

For the sequence “HVQLVEAGGGLVQAGGSLRVSCAASGFTIHYNAMGWYRQAPGKGWELVATISKSAGITSYADSVKGRFTISRDNATNTVYFPMNSLKPEDTAVYYCAADKSYRRVYYWGQGSQVTVSS”, the “polyreactivity (PSR sort gate)” value is “low polyreactivity”.

“HVQLVESGGGFVQAGGSLRLSCASYGSIFSGYAMGSYRQAPAKERELVAAISNTGSTNYADSVKGRFTISRDNAKYNVYLQMNSLKPEDTAVYYCNASYSYGEMDYWGQGTQVTVSS”: the “polyreactivity (PSR sort gate)” value was “low polyreactivity”.

Take “HVQLVESGGGLVQAAGSLRLSCAASGSTFYRYAMGWYRQAPVKERELVAAITRGGGRTYYADSVKGRFTISRDNAKNTVYLQMNSLKPEDTAVFYCNAASPYYDSWGQGTQVTVSS”: the “polyreactivity (PSR sort gate)” value is recorded as “high polyreactivity”.

On to “HVQLVESGGGLVQAGARLRLSCAASGITFFYYAMGWYRQAPGKERELVAAINWSGRTYYADSVKGRFTISRDNAKNTVYLQMNSLKPEDTAVDYCAAVTYGPGVSGMDYWGQGTQVTVSS”, for which the “polyreactivity (PSR sort gate)” value was “low polyreactivity”.

In the case of “HVQLVESGGGLVQAGGILRLSCAASGRIFPGYTMGWYRQGPGKERELVARISFSDGSTYYADSVNGRFTISRDNAKNTVYFQMNSRKPEDTAVYYCNAATYRNRHSNNGYWGQGTQVTVSS”, the “polyreactivity (PSR sort gate)” value is recorded as “low polyreactivity”.

On to “HVQLVESGGGLVQAGGSLRLSCAASGFIFDVNAMGWYRQAPGKERELVAVIRGSGGSTYYADSVKGRFTISRDNAKNTVYLQMNSLKPADTAVYYCAAAVNHVAYHYNYWGQGTQVTVSS”, for which the “polyreactivity (PSR sort gate)” value is listed as “high polyreactivity”.

Take “HVQLVESGGGLVQAGGSLRLSCAASGFIFRGHVMGWYRQAPGKERELVAAISGGSTTYADSVKGRFTISRDNAKTTVYLQMNSLKPEDTAVYYCAKRDQDRTFPNGYWGQGTQVTVSS”: the “polyreactivity (PSR sort gate)” value is given as “high polyreactivity”.

Consider “HVQLVESGGGLVQAGGSLRLSCAASGFIFVFYDMGWYRPAPGKERELVAGITRNDGSTYYADSVKGRFKISRDNAKNTVYLQMNSLKPEDTAVYYCAADRVRRNDKLAYDYWGQGTQVTVSS”, for which the “polyreactivity (PSR sort gate)” value is listed as “low polyreactivity”.

Regarding “HVQLVESGGGLVQAGGSLRLSCAASGFIGIYALGWYRQAPGKERELVAAITTSGGRTYYADSVKGRFTISRDNAKNTVYLQMNSLKPEDTAVYYCAAPWRLFSLYDYWGQGTQVTVSS”, the “polyreactivity (PSR sort gate)” value is listed as “low polyreactivity”.

Consider “HVQLVESGGGLVQAGGSLRLSCAASGFTFPIYTMGWYRQAPGKESELVAAISASGGRTYYADSVKGRFTISRDNAKNTVYFQMNSLNPEDTSVYFCAADGYRAPGNAYYYWGQGTQVTVSS”, for which the “polyreactivity (PSR sort gate)” value is on record as “high polyreactivity”.

As to “HVQLVESGGGLVQAGGSLRLSCAASGFTFRRNAMGWYRQSPGKERELVASITQRGGSTYYADSVKGRFTISRDNAKNTVYLQMNSLKPADTAVYDCNARSWDSFHPHDYWGQGTLVTVSS”, the “polyreactivity (PSR sort gate)” value is reported as “high polyreactivity”.

In the case of “HVQLVESGGGLVQAGGSLRLSCAASGFTIQRYAMGWYRQAPGKERELVAAITSGGSTYYADSVKGRFTISRDNAMNTVYLQMNSLKPEDTAVYYCATRAVWSSWGRRYDSWGQGTQVTVSS”, the “polyreactivity (PSR sort gate)” value was “high polyreactivity”.

For “HVQLVESGGGLVQAGGSLRLSCAASGIIFIGNAMGWYSQAPGKERELVAAISRRGGRTYYADSVKGRFTISRDNAKNTVYLQMNSLKPEDTAVYYCNAEISVNDDDYWGQGTQVTVSS”, the “polyreactivity (PSR sort gate)” value is “high polyreactivity”.

Consider “HVQLVESGGGLVQAGGSLRLSCAASGIIFWTYTMGWYRQAPGKERELVGAISSGGSTKYADSVKGRFTISRDNAKNTVYLQMNSLKPADTAVYYCNAEFAPWGSAYGHDQYDYWGQGTQVTVSS”, for which the “polyreactivity (PSR sort gate)” value was “low polyreactivity”.

On to “HVQLVESGGGLVQAGGSLRLSCAASGITFPIYAMGWYRQAPGKEREFVAAINQRGGSTYYADSVKGRFTISRDNAKNTVYLQMNSLKPEDTAVDYCAAENGFNSLSRSGLHYWGQGTQVTVSS”, for which the “polyreactivity (PSR sort gate)” value was “low polyreactivity”.

As to “HVQLVESGGGLVQAGGSLRLSCAASGLIFSAYAMGWYRQAPGKEREFVAAISRSGGITFYADSVKGRFTISRDNAKNTVYLQMNSLKPEDTAVYYCAARLYKYRRGGGYFWGQGTKVTVSS”, the “polyreactivity (PSR sort gate)” value is recorded as “high polyreactivity”.
